# Target: N-terminal DYKDDDK-tagged mouse Tim-3 (T-cell immunoglobulin mucin domain-3) with the VN-173 portion of the Venus fluorophore at the C terminus (Tim-3-VN) (UniProt Q8VIM0)
# Test: bimolecular fluorescence complementation (BiFC)
# Conditions: HeLa CD4+ cells, fixed 24 h after transfection; BiFC intensity normalized to Nef expression (HA staining); 3 independent repeats, 30 cells total; parent: est. 1.1; read off a plot
# UniProt Q8VIM0, sequence (Q8VIM0 20-281): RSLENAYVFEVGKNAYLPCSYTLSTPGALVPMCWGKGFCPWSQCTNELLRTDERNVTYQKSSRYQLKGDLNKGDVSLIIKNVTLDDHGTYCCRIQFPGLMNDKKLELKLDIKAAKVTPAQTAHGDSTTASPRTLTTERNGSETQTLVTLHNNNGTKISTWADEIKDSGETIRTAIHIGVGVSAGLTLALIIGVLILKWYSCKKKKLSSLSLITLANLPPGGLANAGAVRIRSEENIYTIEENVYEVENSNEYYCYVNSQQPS
substance,measurement,value
HIV-1 NL4-3 Nef fused to a C-terminal HA tag and the VC-155 portion of the Venus fluorophore (Nef-HA-VC) L164A; L165A,response,0.42 BiFC/Nef IF

# From paper PMC8390549
